T1: human CD200R1 expressed on cells (Jurkat-CD200R1, U937-CD200R1, HH cells) (human, UniProt Q8TD46 25-348)
T1 construct: whole, on cells; also called HH (CRL-2105); cell surface-expressed CD200R1
T1 sequence (looked up): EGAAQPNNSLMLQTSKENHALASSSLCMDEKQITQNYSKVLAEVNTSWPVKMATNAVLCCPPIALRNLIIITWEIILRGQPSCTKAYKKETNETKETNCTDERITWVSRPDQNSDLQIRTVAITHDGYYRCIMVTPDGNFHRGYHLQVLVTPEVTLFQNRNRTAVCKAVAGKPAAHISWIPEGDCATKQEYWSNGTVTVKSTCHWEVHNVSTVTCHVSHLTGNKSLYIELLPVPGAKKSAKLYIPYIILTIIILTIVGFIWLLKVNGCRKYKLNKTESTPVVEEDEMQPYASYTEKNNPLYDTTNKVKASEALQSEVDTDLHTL

T2: cynomolgus CD200R1 with dual His-tags (cynomolgus, UniProt G7NZT0 25-266)
T2 construct: Captured on the SPR chip by an anti-histidine antibody; also called CCD200R1-his; cCD200R1-his; not shown: dual His-tags
T2 sequence: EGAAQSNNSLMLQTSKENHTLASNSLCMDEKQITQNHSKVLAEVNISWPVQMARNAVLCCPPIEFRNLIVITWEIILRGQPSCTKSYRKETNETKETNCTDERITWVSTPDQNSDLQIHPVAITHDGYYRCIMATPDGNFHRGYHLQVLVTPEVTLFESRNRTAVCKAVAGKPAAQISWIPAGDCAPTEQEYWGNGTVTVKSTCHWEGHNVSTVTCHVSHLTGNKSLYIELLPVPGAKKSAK

T3: human CD200R1 with dual His-tags (human, UniProt Q8TD46 25-265)
T3 construct: Captured on the SPR chip by an anti-histidine antibody; also called hCD200R1-his; not shown: dual His-tags
T3 sequence (looked up): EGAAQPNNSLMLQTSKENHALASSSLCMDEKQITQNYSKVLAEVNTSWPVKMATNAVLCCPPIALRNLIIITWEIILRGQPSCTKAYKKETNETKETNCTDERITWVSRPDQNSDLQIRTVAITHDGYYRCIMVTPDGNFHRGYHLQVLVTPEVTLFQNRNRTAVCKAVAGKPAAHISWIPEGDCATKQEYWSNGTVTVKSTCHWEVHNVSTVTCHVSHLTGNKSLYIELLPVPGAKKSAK

T4: human CD200RLa (Sino Biological, 11620-H08H) recombinant protein (human, UniProt Q6Q8B3 24-239)
T4 construct: Bought; construct not described
T4 sequence (looked up): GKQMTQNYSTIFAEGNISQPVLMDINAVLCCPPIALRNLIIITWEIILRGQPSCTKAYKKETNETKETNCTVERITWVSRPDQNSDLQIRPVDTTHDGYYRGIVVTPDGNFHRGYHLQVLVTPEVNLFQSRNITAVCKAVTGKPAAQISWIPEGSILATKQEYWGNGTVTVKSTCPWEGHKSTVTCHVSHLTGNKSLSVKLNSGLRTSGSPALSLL

T5: Hybrid CD200R1 MH (mouse;human, UniProt Q9ES57;Q8TD46)
T5 construct: single domain; mouse D1 over human D2; also called MH hybrid domain; P001 MH domain
T5 sequence (hybrid extracellular part, looked up): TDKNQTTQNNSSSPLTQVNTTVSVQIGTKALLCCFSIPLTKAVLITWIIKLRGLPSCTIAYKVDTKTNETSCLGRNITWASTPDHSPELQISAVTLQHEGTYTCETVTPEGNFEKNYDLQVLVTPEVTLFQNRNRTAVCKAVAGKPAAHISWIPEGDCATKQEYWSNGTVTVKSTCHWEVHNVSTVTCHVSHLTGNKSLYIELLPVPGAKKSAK

T6: mouse CD200R1 protein (R&D systems, 2554-CD) (mouse, UniProt Q9ES57 26-238, limits assumed)
T6 construct: Bought; construct not described
T6 sequence (looked up): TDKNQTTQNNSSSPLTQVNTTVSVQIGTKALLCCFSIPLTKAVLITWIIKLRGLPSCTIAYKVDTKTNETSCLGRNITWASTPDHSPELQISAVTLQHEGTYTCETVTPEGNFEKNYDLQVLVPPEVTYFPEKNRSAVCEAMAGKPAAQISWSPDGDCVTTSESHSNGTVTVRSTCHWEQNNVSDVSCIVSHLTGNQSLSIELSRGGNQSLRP

T7: monkey CD200RLa (Sino Biological, 11576-C02H) recombinant protein (monkey (cyno), UniProt A0A2K5W6R0 30-246)
T7 construct: Bought; construct not described; also called cyno CD200RLa
T7 sequence: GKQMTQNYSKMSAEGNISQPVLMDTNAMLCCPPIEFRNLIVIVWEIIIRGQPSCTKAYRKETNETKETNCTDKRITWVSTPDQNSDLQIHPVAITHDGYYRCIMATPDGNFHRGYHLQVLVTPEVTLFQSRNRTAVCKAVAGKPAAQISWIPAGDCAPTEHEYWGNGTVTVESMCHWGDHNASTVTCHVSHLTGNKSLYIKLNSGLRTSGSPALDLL


Columns and labels:
[1] = biological target: T1, human CD200R1 expressed on cells …; test: flow cytometry, Jurkat-CD200R cells
Description: Two additional wells were treated with 10 μl of mouse IgG1K (BD, #555751) and 5 μl of commercial CD200R1 antibody (Biolegend, #329308) to determine CD200R1 expression on the cell line surface for cell quality control.
The antibodies were serially diluted 10-fold from a maximum concentration of 100 nM to 10 nM, 1 nM, […], and were added to the pre-seeded cells. After reaction for 1 hour at 4° C., the cells were treated with Alexa-647 goat anti-human IgG (H+L) cross-adsorbed secondary antibody (Invitrogen, #A21445) and incubated for an additional 30 minutes at 4° C. After washing twice with FACS buffer, flow cytometry was performed using a Novocyte Flow cytometer (Agilent). Using GraphPad Prism software, the EC₅₀ was determined using a nonlinear graph model of log (agonist) vs. response-variable slope, as shown in Table 32.

[2] = biological target: T2, cynomolgus CD200R1 with dual His-tags; test: SPR (Biacore CM5), His-tagged antigen captured by anti-histidine antibody, antibody as analyte, 1:1 Langmuir fit
Description: (§1) For the experiment, 30 μg/mL of an anti-histidine antibody was conjugated to a CM5 biacore chip via an amine bond while allowing to flow at 10 μl/min (10,000 RU). Then, 0.25 μg/mL of human or cynomolgus CD200R1 with dual His-tags was captured onto the completed chip for 60 seconds, and the binding ability of each antibody was analyzed. All experiments were performed by association of antibodies for 120 seconds and dissociation of antibodies for 600 seconds. The resulting graphs were fitted using a 1:1 Langmuir binding kinetic model (FIG. 16), and the kinetics of each antibody were calculated.

[3] = biological target: T3, human CD200R1 with dual His-tags; test: as above
Description: as §1

[4] = biological target: T4, human CD200RLa (Sino Biological, …); test: ELISA, plate-bound human CD200RLa (2 ug/mL), antibody 0.0192-300 nM, O.D 450 nm; panel 'recombinant human CD200RLa'
Description: (§2) 96-well plates were coated with human CD200RLa (Sino Biological, 11620-H08H) and monkey CD200RLa (Sino Biological, 11576-C02H) recombinant proteins at a concentration of 2 μg/mL at 4° C. for 16 hours, and blocked with 3% skim milk for 1 hour. […] Color was developed with a TMB substrate solution (Thermo Scientific, 34029, 1-Step™ Ultra TMB-ELISA Substrate Solution). The color reaction was stopped with stop solution (Invitrogen, SS04, ELISA Stop Solution).

Hybrid CD200R1 MH = biological target: T5, Hybrid CD200R1 MH; test: ELISA, plate-bound MH hybrid (1 ug/mL), antibody 0.0192-300 nM, O.D 450 nm; panel 'P001 MH domain-1)'
Description: Recombinant proteins were produced from the extracellular Ig-like V-type domain and Ig-like C2-type domain of human CD200R1, each designed as human-mouse (HM hybrid domain) and mouse-human (MH hybrid domain) recombinant proteins. A 96-well plate was coated at a concentration of 1 μg/mL with each protein at 4° C. for 16 hours and blocked with 3% skim milk. […] After color development with TMB substrate solution (Thermo Scientific, 34029, 1-Step™ Ultra TMB-ELISA Substrate Solution), the color reaction was stopped with a stop solution (Invitrogen, SS04, ELISA Stop Solution), and the absorbance was measured at an O.D. of 450 nm.

[5] = biological target: T6, mouse CD200R1 protein (R&D systems, …); test: ELISA, plate-bound mouse CD200R1 (2 ug/mL), IgG 0.0192-300 nM, OD 450 nm; panel 'mouse CD200R1'
Description: 96-well plates were coated with human CD200R1 (R&D systems, 3414-CD) and mouse CD200R1 protein (R&D systems, 2554-CD) at a concentration of 2 μg/mL at 4° C. for 16 hours and then were blocked with 3% skim milk.
Color was developed with a TMB substrate solution (Thermo Scientific, 34029, 1-Step™ TMB-ELISA Ultra Substrate Solution). The color reaction was stopped with stop solution (Invitrogen, SS04, ELISA Stop Solution). The absorbance was measured at an optical density of 450 nm.

[6] = biological target: T1, human CD200R1 expressed on cells …; test: flow cytometry on Jurkat-CD200R1 and HH cells, 500 nM antibody in IgG1 form
Description: The cells were washed by centrifugation at 130 g for 5 minutes. The cells were seeded onto 96-well round-bottom plates (SPL, #34296) at a density of 1×10⁵ cells/well in Flow cytometry staining buffer (Invitrogen, #00-4222-26) or FACS buffer. […] After incubation for 1 hour at 4° C., the cells were treated with Alexa-647 Goat anti-human IgG (H+L) cross-adsorbed secondary antibody (Invitrogen, #A21445) and incubated at 4° C. for an additional 30 minutes. After washing twice with FACS buffer, flow cytometry analysis was performed using a Novocyte Flow cytometer (Agilent).

[7] = biological target: T7, monkey CD200RLa (Sino Biological, …); test: ELISA, plate-bound monkey CD200RLa (2 ug/mL), antibody 0.0192-300 nM, O.D 450 nm; panel 'recombinant cynomolgus CD200RLa/Fc'
Description: as §2

Row | Binder | binding result [4] | binding result [5] | binding result [7] | binding result (Hybrid CD200R1 MH) | other results
1 | P001009v4 (antibody, V domains shown, P001009 with LC N31K (Kabat); also called P019001v4) VH: EVQLLESGGGLVQPGGSLRLSCAASGFTFSSYDMSWVRQAPGKGLEWVSWISHGGGSIYYADSVKGRFTISRDNSKNTLYLQMNSLRAEDTAVYYCARDAPAYSAPLFDYWGQGTLVTVSS VL: QSVLTQPPSASGTPGQRVTISCSGSSSNIGNKAVNWYQQLPGTAPKLLIYYDSNRPSGVPDRFSGSKSGTSASLAISGLRSEDEADYYCAAWDDSLSGYVFGGGTKLTVL |  |  |  |  | EC50 [1]: 2.37 nM; Kd [2]: 0.0822 nM; koff [2]: 0.000305 s⁻¹; kon [2]: 3.71e+06 M⁻¹ s⁻¹; Kd [3]: 1.04 nM; koff [3]: 0.007 s⁻¹; kon [3]: 6.74e+06 M⁻¹ s⁻¹
2 | P001003 (IgG) (antibody, V domains shown) VH: EVQLLESGGGLVQPGGSLRLSCAASGFTFSDYAMSWVRQAPGKGLEWVSAISHGGSSKYYADSVKGRFTISRDNSKNTLYLQMNSLRAEDTAVYYCARGPEVMLEFDYWGQGTLVTVSS VL: QSVLTQPPSASGTPGQRVTISCTGSSSNIGNNAVTWYQQLPGTAPKLLIYSDNHRPSGVPDRFSGSKSGTSASLAISGLRSEDEADYYCAAWDSSLSGYVFGGGTKLTVL | no binding (tested: 300 nM) | no binding (tested: 300 nM) |  | no binding (tested: 300 nM) | 
3 | P001004 (IgG) (antibody, V domains shown) VH: EVQLLESGGGLVQPGGSLRLSCAASGFTFSDYYMSWVRQAPGKGLEWVSGIYPGDGSIYYADSVKGRFTISRDNSKNTLYLQMNSLRAEDAAVYYCAKGLDLYEPMAFDYWGQGTLVTVSS VL: not shown | no binding (tested: 300 nM) | no binding (tested: 300 nM) |  | no binding (tested: 300 nM) | MFI normalized to P001017 (chimeric OX108), % [6]: > 50%
4 | P001011 (IgG) (antibody, V domains shown) VH: EVQLLESGGGLVQPGGSLRLSCAASGFTFSDYYMSWVRQAPGKGLEWVSWISSGGGSTYYADSVKGRFTISRDNSKNTLYLQMNSLGAEDTAVYYCARVRGTCNGTLCYYSNAMDVWGQGTLVTVSS VL: QSVLTQPPSASGTPGQRVTISCTGSSSNIGSNDVSWYQQLPGTAPKLLIYDDNHRPSGVPDRFSGSKSGTSASLAISGLRSEDEADYYCGTWDASLNAYVFGGGTKLTVL | no binding (tested: 300 nM) | no binding (tested: 300 nM) | no binding (tested: 300 nM) |  | 

Now from value to binder, other results behind:

Row | binding result [4] | binding result [5] | binding result [7] | Binder | binding result (Hybrid CD200R1 MH) | other results
5 | no binding (tested: 300 nM) | no binding (tested: 300 nM) |  | P001005 (IgG) (antibody, V domains shown) VH: EVQLLESGGGLVQPGGSLRLSCAASGFTFSGYDMSWVRQAPGKGLEWVSQIYPGNGSKYYADSVKGRFTISRDNSKNALYLQMNSLRAEDTAVYYCAKDLQTWTSRRFDYWGQGTLVTVSS VL: QSVLTQPPSASGTPGQRVTISCSGSSSNIGNNDVNWYQQLPGTAPKLLIYSNSHRPSGVPDRFSGSKSGTSASLAISGLRSEDGADYYCGTWDDSLNGYVFGGGTKLTVL | no binding (tested: 300 nM) | 
6 | no binding (tested: 300 nM) |  | no binding (tested: 300 nM) | P001007 (IgG) (antibody, V domains shown) VH: EVQLLESGGGLVQPGGSLRLSCAASGFTFSNYDMSWVRQAPGKGLEWVSAISYDNGNTYYADSVKGRFTISRDNSKNTLYLQMNSLRAEDTAVYYCARNRAWFDYWGQGTLVTVSS VL: QSVLTQPPSASGTPGQRVTISCSGSSSNIGNNNVYWYQQLPGTAPKLLIYYDSQRPSGVPDRFSGSKSGTSASLAISGLRSEDEADYYCAAWDASLNGYVFGGGTKLTVL |  | 
